Measurements from the supplement of paper PMC10126150.
± gives the standard deviation of the averaged measurements.

Test system: ATP
Assay: switch fluorescence ratio, 500 uM ATP over buffer (Cy3 cluster intensity, sum of 5 cycles each) (fold (ratio)); higher = stronger signal-on switching upon ATP binding; sequences stand for … in TCGTCGGCAGCGTCAGATGTGTATAAGAGACAGTTTTTTTTTTTTTTTTTTTTTTTTT…TC
Conditions: aptamer strand: ATP DNA aptamer (quencher-CACCTGGGGGAGTATTGCGGAGGAAGG + anchor), 100 nM annealed; ATP concentration: 500 uM
Procedure, shortened: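 Per cluster, summed Cy3 intensity from the target cycles was divided by that from the buffer cycles to give the fluorescence ratio, then averaged per switch-domain sequence. Clusters outside 100-1000 RFU were excluded. The Cy3-labelled switching-strand clusters, on a modified Illumina MiSeq flow-cell, were annealed to 100 nM quencher-labelled ATP aptamer and imaged in selection buffer, then after 15 min with 500 uM ATP at 22 °C, for five cycles with NaOH stripping and re-annealing between them.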
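Note: ATP exposure 15 min at 22 °C before imaging.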

Row | Sequence | switch fluorescence ratio
1 | CCTAGTACCT | 1.19 ± 0.05
2 | CCTAGTTGAA | 1.03 ± 0.015
3 | CCTAGTTTTT | 0.997 ± 0.023
4 | CCTATAAAGG | 1.03 ± 0.04
5 | CCTATACAAC | 1.11 ± 0.044
6 | CCTATCACAA | 3.47 ± 0.46
7 | CCTATCCCTG | 1.08 ± 0.058
8 | CCTATGGGTT | 1.05 ± 0.015
9 | CCTATTGGGG | 1.02 ± 0.037
10 | CCTCAAAGCT | 1.794 ± 0.0088
11 | CCTCAGAGGG | 1.24 ± 0.22
12 | CCTCAGGGAA | 1.2 ± 0.14
13 | CCTCATAGTC | 1.413 ± 0.0066
14 | CCTCCCTTTT | 2.2 ± 0.4
15 | CCTCGCGGGA | 1.8 ± 0.028
16 | CCTCGGACTT | 1.57 ± 0.48
17 | CCTCGGTTTT | 1.24 ± 0.013
18 | CCTCGTGTTG | 1.02 ± 0.022
19 | CCTCGTTATT | 1.27 ± 0.027
20 | CCTCTATTCT | 1.1 ± 0.026
21 | CCTCTGATCT | 1.38 ± 0.1
22 | CCTCTGATTT | 1.47 ± 0.3
23 | CCTCTGGTTT | 2.84 ± 0.37
24 | CCTGAATTAT | 0.9941 ± 0.0012
25 | CCTGAGGATG | 1.03 ± 0.015

Row | Sequence | switch fluorescence ratio
26 | CCTGAGGTGT | 1.47 ± 0.18
27 | CCTGAGTGTA | 1 ± 0.024
28 | CCTGAGTTTG | 1.01 ± 0.035
29 | CCTGCAGGGG | 1.094 ± 0.0051
30 | CCTGCGGGGA | 1.31 ± 0.29
31 | CCTGGAGCGG | 1.19 ± 0.037
32 | CCTGGAGCTC | 1.35 ± 0.02
33 | CCTGGAGGTT | 0.964 ± 0.022
34 | CCTGGATTTC | 1.01 ± 0.077
35 | CCTGGCAAGT | 1.87 ± 0.078
36 | CCTGGCAGAG | 1.22 ± 0.048
37 | CCTGGCAGCG | 1.05 ± 0.03
38 | CCTGGGCCGC | 1.65 ± 0.081
39 | CCTGGGCCGG | 1.06 ± 0.058
40 | CCTGGGCTGT | 1.52 ± 0.48
41 | CCTGGGGGAT | 1.75 ± 0.43
42 | CCTGGGGGC | 1.1 ± 0.056
43 | CCTGGGGGCA | 1.04 ± 0.0089
44 | CCTGGGGGGA | 1.02 ± 0.059
45 | CCTGTAGGTA | 1.009 ± 0.0069
46 | CCTGTGCGGA | 1.534 ± 0.013
47 | CCTGTGGCAC | 1.21 ± 0.054
48 | CCTGTGTAAT | 3.18 ± 0.053
49 | CCTTAAGACT | 1.07 ± 0.028
50 | CCTTAAGGCG | 1.023 ± 0.0026

Row | Sequence | switch fluorescence ratio
51 | CCTTAATTTG | 1.007 ± 0.0089
52 | CCTTAGTTGG | 1.02 ± 0.056
53 | CCTTATGGCG | 0.996 ± 0.076
54 | CCTTATGGGA | 0.982 ± 0.026
55 | CCTTCACCTT | 1.077 ± 0.0017
56 | CCTTCCCGGG | 1.59 ± 0.0072
57 | CCTTCCTGTG | 3.62 ± 0.024
58 | CCTTCGAGG | 1.15 ± 0.2
59 | CCTTGAAGGT | 0.984 ± 0.0091
60 | CCTTGCCGGG | 1.05 ± 0.019
61 | CCTTGGGGGG | 1.03 ± 0.11
62 | CCTTGTAGGT | 1.02 ± 0.038
63 | CCTTGTATAA | 1.07 ± 0.014
64 | CCTTGTATAT | 1.077 ± 0.0083
65 | CCTTTATCGG | 0.997 ± 0.012
66 | CCTTTATGGG | 0.9952 ± 0.0095
67 | CCTTTCCGGG | 1.21 ± 0.048
68 | CCTTTCTTTT | 1.04 ± 0.049
69 | CCTTTGGATA | 1.13 ± 0.16
70 | CCTTTTAGCA | 2.07 ± 0.12
71 | CCTTTTAGCG | 1.16 ± 0.055
72 | CCTTTTAGTT | 0.988 ± 0.026
73 | CCTTTTATTT | 1.04 ± 0.018
74 | CCTTTTGCCA | 1.1 ± 0.028
75 | CCTTTTGGGT | 1.015 ± 0.0095

Row | Sequence | switch fluorescence ratio
76 | CGAAAAAAAT | 1.03 ± 0.035
77 | CGAAACATGA | 1.01 ± 0.014
78 | CGAAAGGGCT | 0.989 ± 0.036
79 | CGAAATGTCC | 1.061 ± 0.002
80 | CGAAATTTGG | 1.03 ± 0.044
81 | CGAACGGGGA | 1.16 ± 0.049
82 | CGAAGAACTA | 1.023 ± 0.0028
83 | CGAAGACCAG | 1.05 ± 0.081
84 | CGAAGCGGGG | 1.08 ± 0.054
85 | CGAAGCTGGT | 1.075 ± 0.0037
86 | CGAAGGGTAA | 1.02 ± 0.028
87 | CGAAGGGTTA | 0.971 ± 0.027
88 | CGAAGTATAG | 1.37 ± 0.038
89 | CGAAGTTTGT | 0.98 ± 0.01
90 | CGAATAGTTG | 1.005 ± 0.0085
91 | CGAATGAGGT | 0.99 ± 0.04
92 | CGAATTCCGG | 1.01 ± 0.084
93 | CGAATTGGTG | 1.03 ± 0.04
94 | CGACAAGAGA | 1.47 ± 0.085
95 | CGACAATGCC | 1.29 ± 0.03
96 | CGACACGCTG | 1.05 ± 0.058
97 | CGACATGGTG | 1.07 ± 0.027
98 | CGACCGGGTA | 1.02 ± 0.023
99 | CGACCTACAG | 1.02 ± 0.02
100 | CGACGTGATG | 1.227 ± 0.0082

Row | Sequence | switch fluorescence ratio
101 | CGACGTGCGG | 0.9944 ± 0.0062
102 | CGACGTTCAC | 1.96 ± 0.051
103 | CGACTCATAT | 1.52 ± 0.11
104 | CGACTCGAAA | 1.02 ± 0.016
105 | CGACTGAGGT | 1.03 ± 0.029
106 | CGACTGGAAC | 1.207 ± 0.008
107 | CGACTTACGG | 1.11 ± 0.03
108 | CGAGAAATTT | 1.01 ± 0.022
109 | CGAGAAGGGT | 0.997 ± 0.039
110 | CGAGAGTGTT | 0.995 ± 0.026
111 | CGAGATACTC | 1.86 ± 0.17
112 | CGAGATCGAC | 0.97 ± 0.012
113 | CGAGCATAGG | 1.23 ± 0.085
114 | CGAGCGTGTG | 0.9998 ± 0.0047
115 | CGAGCTGGTT | 0.991 ± 0.0027
116 | CGAGCTTGAA | 1.03 ± 0.022
117 | CGAGCTTTGA | 1.034 ± 0.0084
118 | CGAGGAGCAT | 1.01 ± 0.058
119 | CGAGGAGGGA | 0.9686 ± 0.0093
120 | CGAGGATAAA | 0.994 ± 0.027
121 | CGAGGATTTC | 0.9885 ± 0.0094
122 | CGAGGATTTG | 0.994 ± 0.018
123 | CGAGGCCGGG | 1.01 ± 0.015
124 | CGAGGGACCC | 1.01 ± 0.044
125 | CGAGGGAGGC | 1.011 ± 0.0095

Row | Sequence | switch fluorescence ratio
126 | CGAGGGGCCC | 1.01 ± 0.036
127 | CGAGGGGGCT | 0.99 ± 0.02
128 | CGAGGGGTAC | 1.4 ± 0.0095
129 | CGAGGGTAGA | 1.01 ± 0.03
130 | CGAGGGTCCG | 0.99899 ± 0.00035
131 | CGAGGGTGTA | 0.999 ± 0.0014
132 | CGAGGGTTTG | 0.9968 ± 0.0032
133 | CGAGGTGGGT | 1.01 ± 0.049
134 | CGAGGTTCTG | 0.97 ± 0.039
135 | CGAGTATCTA | 0.993 ± 0.029
136 | CGAGTATTTT | 1.024 ± 0.0022
137 | CGAGTCTCGT | 1.03 ± 0.04
138 | CGAGTGGGGT | 1.01 ± 0.043
139 | CGAGTGTGGG | 1.01 ± 0.021
140 | CGAGTTTTCG | 1 ± 0.03
141 | CGATAACGGG | 1.07 ± 0.077
142 | CGATAATTTA | 1 ± 0.053
143 | CGATAGAAGT | 1.01 ± 0.016
144 | CGATAGGTTT | 1 ± 0.019
145 | CGATATCTAC | 1.06 ± 0.016
146 | CGATATGGTT | 1 ± 0.025
147 | CGATCGGCTG | 0.993 ± 0.019
148 | CGATCGGTGG | 1.01 ± 0.058
149 | CGATCTTGTG | 0.988 ± 0.01
150 | CGATGACATG | 0.9877 ± 0.0082

Row | Sequence | switch fluorescence ratio
151 | CGATGATTGT | 1.03 ± 0.059
152 | CGATGCGGGG | 1.011 ± 0.0095
153 | CGATGCTCCG | 0.932 ± 0.024
154 | CGATGCTCTG | 1.01 ± 0.063
155 | CGATGCTGGT | 1.02 ± 0.053
156 | CGATGGAATC | 1.69 ± 0.042
157 | CGATGGAGAG | 1.0297 ± 0.00016
158 | CGATGGCGAC | 1.016 ± 0.0051
159 | CGATGGGAGG | 1.06 ± 0.073
160 | CGATGGGATT | 1.056 ± 0.0043
161 | CGATGGGGGA | 1.02 ± 0.018
162 | CGATGGGGGC | 0.957 ± 0.068
163 | CGATGGGTAA | 1 ± 0.033
164 | CGATGGTACG | 0.946 ± 0.05
165 | CGATGGTGAA | 1.02 ± 0.035
166 | CGATGTGTGG | 0.986 ± 0.015
167 | CGATTAGTCT | 0.9951 ± 0.0021
168 | CGATTCGAGT | 0.967 ± 0.016
169 | CGATTCGTCT | 1.05 ± 0.05
170 | CGATTGAATC | 0.991 ± 0.021
171 | CGATTGATCA | 1.004 ± 0.0075
172 | CGATTTTTAG | 0.98 ± 0.032
173 | CGATTTTTGT | 0.982 ± 0.02
174 | CGCAAAAGGG | 1.54 ± 0.41
175 | CGCAAAGATT | 1.06 ± 0.024

Row | Sequence | switch fluorescence ratio
176 | CGCAAGTATG | 1.26 ± 0.036
177 | CGCACCACGA | 1.208 ± 0.0072
178 | CGCAGATTCG | 1.01 ± 0.024
179 | CGCAGGATGG | 1.05 ± 0.05
180 | CGCAGGGAGT | 1.041 ± 0.01
181 | CGCAGGGTTC | 1.13 ± 0.12
182 | CGCATATGGC | 2.459 ± 0.016
183 | CGCATCCCGC | 1.37 ± 0.024
184 | CGCATCGCGT | 1.02 ± 0.015
185 | CGCATCGGTC | 1.16 ± 0.049
186 | CGCATGATAG | 1.24 ± 0.036
187 | CGCATGTCTC | 1.81 ± 0.11
188 | CGCATTTTGC | 1.19 ± 0.15
189 | CGCCATGGCC | 0.9924 ± 0.0066
190 | CGCCATGGGT | 0.9915 ± 0.0027
191 | CGCCATTTTT | 0.9822 ± 0.0022
192 | CGCCCCAGGA | 1.85 ± 1.1
193 | CGCCCGGAAT | 1.97 ± 0.3
194 | CGCCCGGTAA | 1.13 ± 0.043
195 | CGCCCGTTGT | 1.01 ± 0.013
196 | CGCCCTTGGG | 0.992 ± 0.024
197 | CGCCGACGGC | 1.01 ± 0.018
198 | CGCCGGAGGA | 0.9697 ± 0.0067
199 | CGCCGGCTTT | 1.019 ± 0.0085
200 | CGCCGGGTCC | 1.05 ± 0.02
